{
  "source": "patent US20220356245A1",
  "key": {"[1]": {"target": "human CD47 (hCD47) expressed on cells (human) (UniProt Q08722)", "experiment": "flow cytometry, Raji cells"}, "[2]": {"target": "hu-sCD47-6His; extracellular domain of human CD47 antigen with 6His-tag (human)", "experiment": "SPR Biacore"}, "[3]": {"target": "N-deglycosylated soluble hCD47-His (PNGase treated) (human)", "experiment": "ELISA, one-site binding saturation fit, deglycosylated hCD47"}, "[4]": {"target": "hu-sCD47-6His; extracellular domain of human CD47 antigen with 6His-tag (human)", "experiment": "ELISA, one-site binding saturation fit, glycosylated hCD47"}, "[5]": {"target": "hu-sCD47-6His; extracellular domain of human CD47 antigen with 6His-tag (human)", "experiment": "ELISA, coated glycosylated hCD47-His"}, "[6]": {"target": "N-deglycosylated soluble hCD47-His (PNGase treated) (human)", "experiment": "ELISA, coated N-deglycosylated hCD47-His"}, "[7]": {"target": "human CD47 (hCD47) expressed on cells (human) (UniProt Q08722)", "experiment": "flow cytometry, Raji cells, competition with His-hSIRPα"}},
  "data": [
    {"substance": "B6H12 (mouse IgG1, Abcam) (antibody)", "values": [
      {"measurement": "EC50", "setting": "[1]", "result": 2.93, "unit": "µg/mL"}
    ]},
    {"substance": "humanized 5F9 (hu5F9; vh2-vl2) (antibody)", "values": [
      {"measurement": "Kd", "setting": "[2]", "result": 0.73, "unit": "nM"},
      {"measurement": "Bmax2", "setting": "[3]", "result": 1.4, "unit": "OD value"},
      {"measurement": "equilibrium binding constant", "setting": "[3]", "result": 129, "unit": "pM"},
      {"measurement": "Bmax", "setting": "[4]", "result": 2.66, "unit": "OD value"},
      {"measurement": "equilibrium binding constant", "setting": "[4]", "result": 49, "unit": "pM"},
      {"measurement": "EC50", "setting": "[5]", "result": 0.0547, "unit": "nM"},
      {"measurement": "EC95", "setting": "[5]", "result": 1.96, "unit": "nM"},
      {"measurement": "EC50", "setting": "[6]", "result": 0.254, "unit": "nM"},
      {"measurement": "EC95", "setting": "[6]", "result": 54, "unit": "nM"}
    ]},
    {"substance": "chimeric 5F9 (c5F9) (antibody)", "values": [
      {"measurement": "IC50", "setting": "[7]", "result": 0.209, "unit": "µg/mL"}
    ]}
  ]
}
